# Results from patent publication US8034784B2, “Method of suppressing or reducing IL-TIF-induced inflammation, or treating associated conditions thereof, using Zcytor16” (ZymoGenetics, Inc., priority 1999, dated 2011).
# T1: IL-TIF (Homo sapiens, UniProt Q9GZX6)
# T1 sequence (Q9GZX6 34-179): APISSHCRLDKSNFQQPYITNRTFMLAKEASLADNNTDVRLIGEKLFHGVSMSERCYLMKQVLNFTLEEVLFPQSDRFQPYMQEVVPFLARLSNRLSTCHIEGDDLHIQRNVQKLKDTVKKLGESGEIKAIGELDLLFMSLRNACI
# Key:
# IL-TIF [1] = target: T1, IL-TIF; test: Antagonism of IL-TIF-induced proliferation of BaF3/CRF2-4/zcytor11 cells (Alamar Blue); type: cell-based; set-up: made in house; host or cells: BHK 570 cells, pHZ200-CEE vector, purified from conditioned media; settings: zcytor16 at 10 μg/ml; IL-TIF at all concentrations (0.06-50 ng/ml)
# Excerpt: Purified IL-TIF-CEE (Example 19) was used to test for the presence of proliferation activity as described below. Purified zcytor16-Fc4 (Example 11) was used to antagonize the proliferative response of the IL-TIF in this assay as described below.
# BaF3/CRF2-4/zcytor11 cells were spun down and washed in the complete media, described in Example 7A above, but without mIL-3 (hereinafter referred to as “mIL-3 free media”). The cells were spun and washed 3 times to ensure the removal of the mIL-3. Cells were then counted in a hemacytometer. Cells were plated in a 96-well format at 5000 cells per well in a volume of 100 μl per well using the mIL-3 free media.
# Proliferation of the BaF3/CRF2-4/zcytor11 cells was assessed using IL-TIF-CEE protein diluted with mIL-3 free media to 50, 10, 2, 1, 0.5, 0.25, 0.13, 0.06 ng/ml concentrations. 100 μl of the diluted protein was added to the BaF3/CRF2-4/zcytor11 cells. […] Alamar Blue gives a fluourometric readout based on number of live cells, and is thus a direct measurement of cell proliferation in comparison to a negative control. […] Plates were read on the Finax™ plate reader (Molecular Devices Sunnyvale, Calif.) using the SoftMax™ Pro program, at wavelengths 544 (Excitation) and 590 (Emmission). […] The response, as measured, was approximately 15-fold over background at the high end of 50 ng/ml down to a 2-fold induction at the low end of 0.06 ng/ml. […]
# IL-TIF [2] = target: T1, IL-TIF; test: COS cell secretion trap binding assay; set-up: expressed in transfected cells; host or cells: COS cells, pZP7 expression vector; settings: 1-3 μg/ml zcytor16sR-Fc4, COS cells transfected with human IL-TIF cDNA
# Protocol: COS cell transfections were performed as follows: A mixture of 0.5 μg DNA and 5 μl lipofectamine (Gibco BRL) in 92 ul serum free DMEM media (55 mg sodium pyruvate, 146 mg L-glutamine, 5 mg transferrin, 2.5 mg insulin, 1 μg selenium and 5 mg fetuin in 500 ml DMEM) was incubated at room temperature for 30 minutes and then 400 μl serum free DMEM media added. A 500 μl mixture was added onto COS cells plated on 12-well tissue culture plate at 1.5×10^5 COS cells/well and previously incubated for 5 hours at 37° C. An additional 500 μl 20% FBS DMEM media (100 ml FBS, 55 mg sodium pyruvate and 146 mg L-glutamine in 500 ml DMEM) was added and the plates were incubated overnight.
# The secretion trap was performed as follows: Media was rinsed off cells with PBS and fixed for 15 minutes with 1.8% Formaldehyde in PBS. Cells were then washed with TNT (0.1M Tris-HCl, 0.15M NaCl, and 0.05% Tween-20 in H2O). Cells were permeated with 0.1% Triton-X in PBS for 15 minutes and washed again with TNT. […]
# IL-TIF [3] = target: T1, IL-TIF; test: Inhibition of IL-TIF activation of luciferase reporter in MES 13 cells by zcytor16-Fc4; type: cell-based; settings: even at the highest dose of IL-TIF used
# Protocol: MES 13 cells (ATCC No. CRL-1927) were plated at 10,000 cells/well in 96-well tissue culture clusters (Costar) in DMEM growth medium (Life Technologies) supplemented with pyruvate and 10% serum (HyClone). Next day, the medium was switched to serum free DMEM medium by substituting 0.1% BSA (Fraction V; Sigma) for serum. This medium also contained the adenoviral construct KZ136 (below) that encodes a luciferase reporter mini-gene driven by SRE and STAT elements, at a 1000:1 multiplicity of infection (m.o.i.), i.e. 1000 adenoviral particles per cell. After allowing 24 h for the incorporation of the adenoviral construct in the cells, the media were changed and replaced with serum-free media. Human recombinant IL-TIF with or without a recombinant zcytor16-Fc4 fusion was added at the indicated final concentration in the well (as described in Table 11, below). Dilutions of both the IL-TIF and zcytor16-Fc4 were performed in serum-free medium. 0.1% BSA was added for a basal assay control. 4 h later, cells were lysed and luciferase activity, denoting activation of the reporter gene, was determined in the lysate using an Luciferase Assay System assay kit (Promega) and a Labsystems Luminoskan luminometer (Labsystems, Helsinki, Finland). Activity was expressed as luciferase units (LU) in the lysate.
# The construction of the adenoviral KZ136 vector was as follows. […]
# [4] = tested on: BaF3/CRF2-4/zcytor11 cells; test: Alamar Blue proliferation assay, BaF3/CRF2-4/zcytor11 cells; type: cell-based, murine; settings: 3 days, then Alamar Blue
# Protocol: BaF3, an interleukin-3 (IL-3) dependent pre-lymphoid cell line derived from murine bone marrow (Palacios and Steinmetz, Cell 41: 727-734, 1985; Mathey-Prevot et al., Mol. Cell. Biol. 6: 4133-4135, 1986), was maintained in complete media (RPMI medium (JRH Bioscience Inc., Lenexa, Kans.) supplemented with 10% heat-inactivated fetal calf serum, 2 ng/ml murine IL-3 (mIL-3) (R & D, Minneapolis, Minn.), 2 mM L-glutaMax-1™ (Gibco BRL), 1 mM Sodium Pyruvate (Gibco BRL), and PSN antibiotics (GIBCO BRL)). Prior to electroporation, CRF2-4/pZP7P was prepared and purified using a Qiagen Maxi Prep kit (Qiagen) as per manufacturer's instructions. […]
# BaF3/CRF2-4/zcytor11 cells were spun down and washed in the complete media, described in Example 7A above, but without mIL-3 (hereinafter referred to as “mIL-3 free media”). […] Cells were then counted in a hemacytometer. […]
# Proliferation of the BaF3/CRF2-4/zcytor11 cells was assessed using IL-TIF-CEE protein diluted with mIL-3 free media to 50, 10, 2, 1, 0.5, 0.25, 0.13, 0.06 ng/ml concentrations. […] Alamar Blue gives a fluourometric readout based on number of live cells, and is thus a direct measurement of cell proliferation in comparison to a negative control. […] Plates were read on the Finax™ plate reader (Molecular Devices Sunnyvale, Calif.) using the SoftMax™ Pro program, at wavelengths 544 (Excitation) and 590 (Emmission). […]
proliferative response to IL-TIF in the presence of zcytor16 (IL-TIF [1]),binding of zcytor16sR/Fc4 to COS cells transfected with human IL-TIF (IL-TIF [2]),Molecule,antagonism of the response of MES 13 cells to IL-TIF (IL-TIF [3]),proliferative response (induction) ([4]; IL-TIF-CEE 0.06 ng/ml) [fold induction],proliferative response over background ([4]; IL-TIF-CEE 50 ng/ml)
brought down to background,positive binding,zcytor16-Fc4: soluble zcytor16 polypeptide (residue 22 to 231 of SEQ ID NO:2; SEQ ID NO:13) fused to a C-terminal Fc4 tag (protein) TQSTHESLKPQRVQFQSRNFHNILQWQPGRALTGNSSVYFVQYKIYGQRQWKNKEDCWGTQELSCDLTSETSDIQEPYYGRVRAASAGSYSEWSMTPRFTPWWETKIDPPVMNITQVNGSLLVILHAPNLPYRYQKEKNVSIEDYYELLYRVFIINNSLEKEQKVYEGAHRAVEIEALTPHSSYCVVAEIYQPMLDRRSQRSEERCVEIPEPRSSDKTHTCPPCPAPEAEGAPSVFLFPPKPKDTLMISRTPEVTCVVVDVSHEDPEVKFNWYVDGVEVHNAKTKPREEQYNSTYRVVSVLTVLHQDWLNGKEYKCKVSNKALPSSIEKTISKAKGQPREPQVYTLPPSRDELTKNQVSLTCLVKGFYPSDIAVEWESNGQPENNYKTTPPVLDSDGSFFLYSKLTVDKSRWQQGNVFSCSVMHEALHNHYTQKSLSLSPGK,effectively blocks the response to IL-TIF,,
,,"IL-TIF-CEE: human IL-TIF polypeptide (SEQ ID NO:15) containing C-terminal GluGlu (EE) tag, purified from BHK cells; ligand of zcytor16 (protein, listed as Homo sapiens, C-terminal GluGlu tag, ligand of zcytor16) MAALQKSVSSFLMGTLATSCLLLLALLVQGGAAAPISSHCRLDKSNFQQPYITNRTFMLAKEASLADNNTDVRLIGEKLFHGVSMSERCYLMKQVLNFTLEEVLFPQSDRFQPYMQEVVPFLARLSNRLSTCHIEGDDLHIQRNVQKLKDTVKKLGESGEIKAIGELDLLFMSLRNACI",,2,approximately 15 fold over background
